These results are taken from patent US20220372114A1 (CURIA IP, published 2022).

Positions count from the first letter of the chain named. Where “and” joins values, the source holds several entries; their conditions need not be identical. Equal values may be shown once.

Experiment [1] concerns the target SARS-CoV-2 (WIV02 isolate) prefusion stabilized spike trimer protein (SARS-CoV-2 (WIV02 isolate), UniProt P0DTC2 14-1213). Description: ELISA. (In general: An ELISA detects its analyte on a solid surface through an enzyme-linked reagent.)
For experiment [2], the target named is SARS-CoV-2 spike protein on live wild-type virus (SARS-CoV-2, UniProt P0DTC2 14-1273). Description: cell-based or functional assay.

B1: 7-B10-A (antibody, V domains shown)
VH: EVQLVESGGGLVQPKGSLKLSCAASGFTFNTYAMHWVRQAPGKGLEWVARIRSKSSNYARYYADSVKDRFTISRDESQSMLYLQMNNLKTEDTAMYYCVRDHDYYGSSYWFAYWGQGTLVTVSA
VL: DVVMTQTPLSLPVSLGDQASISCSSSQSLVHNNGNTYLHWYLQKPGQSPKLLIYKVSNRFSGVPDRFSGSGSGTDFTLKISRVEAEDLGVYFCSQSTHVPWTFGGGTKLEIK
Consider B1, for which, in experiment [1], the binding result is recorded as “binds”.

B2: 5-P24-A (antibody, V domains shown)
VH: QAYLQQSGAELVRPGASVKMSCKASGYTFTSYSMHWVKQTPRQGLEWIGAIYPGNGDTSYTQKFKGKATLTVDKSSSTAYMQLSSLTSEDSAVYFCARDYSNYPFDYWGQGTTLTVSS
VL: not shown
As for B2, in experiment [1], the binding result is listed as “binds”.

B3: 10-L12-A (antibody, V domains shown)
VH: B2 VH with T61N, A97T
VL: DIVLTQSPASLAVSLGQRATISCRASKSVSTSGYSYLHWYQQKPGQPPKLLIYLASNLESGVPARFSGSGSGTDFTLNIHPVEEEDAATYYCQHSRELPPTFGGGTKLEIK
Take B3: the binding result in experiment [1] is recorded as “binds”.

B4: 10-B13-A (human Fc IgG2 chimera) (antibody, V domains shown)
VH: QVQLQQSGAELVKPGASVKISCKASGYAFSNYWMNWVKQRPGKGLEWIGQIYPGDGDTNYNGNFKGKATLTADKSSSTAYIQLSSLTSEDSAVYFCGRGFIATVVEVFDHWGLGTTLTVSS
VL: DIQMTQTTSSLSASLGDRVTISCRASQDISNYLNWYQQKPDGTVKLLIYYTSRLQSGVPSRFSGSGTGTDYSLTISNLEQEDIATYFCQQGNTLPWTFGGGTKLEIK
On to B4, for which the “IC50, BSL3 Vero E6 infection plaque assay” value in experiment [2] is 0.21 µg/mL and 1.4 nM.

B5: 4-K13-A (antibody, V domains shown)
VH: QAYLQQSGAELVRPGASVKMSCKASGYTFTSYTVHWVKQTPRQGLEWIGAIYPGNVDTSYNQNFKGKATLTVDKSSSTAYMQLSSLTSEDSAVYFCARDGYYAMDYWGQGTSVTVSS
VL: not shown
Take B5: the binding result in experiment [1] is on record as “binds”.
